In US20210380660A1 (OREGON HEALTH AND SCIENCE UNIVERSITY, published 2021):

T1: recombinant human CD74 (C27S) (human, UniProt P04233 1-216)
T1 chain: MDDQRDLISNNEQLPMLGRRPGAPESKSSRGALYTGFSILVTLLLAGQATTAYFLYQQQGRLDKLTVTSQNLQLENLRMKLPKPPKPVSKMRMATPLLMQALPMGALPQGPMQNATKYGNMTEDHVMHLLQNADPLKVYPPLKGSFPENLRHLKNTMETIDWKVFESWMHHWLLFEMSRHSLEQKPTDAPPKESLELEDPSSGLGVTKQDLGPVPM

T2: mouse CD74 (mouse, UniProt P04441-2 1-215, limits assumed)
T2 construct: Native protein pulled down from splenocyte lysate; also called mCD74; immunoprecipitated mouse CD74
T2 sequence (looked up): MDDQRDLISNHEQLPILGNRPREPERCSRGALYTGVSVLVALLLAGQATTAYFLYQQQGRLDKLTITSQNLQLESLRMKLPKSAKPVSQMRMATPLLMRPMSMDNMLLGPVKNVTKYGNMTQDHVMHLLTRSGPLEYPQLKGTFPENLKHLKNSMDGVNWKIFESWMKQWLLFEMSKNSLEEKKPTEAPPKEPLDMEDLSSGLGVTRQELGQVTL


Assays:
[1] = target: T1, recombinant human CD74 (C27S); experiment: competition ELISA against MIF for rhCD74
[2] = target: T1, recombinant human CD74 (C27S); experiment: direct binding ELISA on rhCD74 (legend of FIG. 6A)
[3] = target: T1, recombinant human CD74 (C27S); experiment: competition ELISA: MIF coated, rhCD74 with serially diluted construct, bound rhCD74 detected
[4] = target: T1, recombinant human CD74 (C27S); experiment: direct binding ELISA, rhCD74 (C27S) coated, construct detected with anti-MOG antibody, one-site fit
mouse CD74 = target: T2, mouse CD74; experiment: competition with FITC-labelled P2 peptide on immunoprecipitated mouse CD74, gel densitometry, one-site fit
Protocol: For competition experiments, ELISA plates were coated with MIF at room temperature at a concentration of 0.5 μg/ml in TBS. Plates were then blocked overnight with 5% BSA in TBS and 0.0125% T20 followed by the addition of a competitive mix containing rhCD74 with serially diluted DRα1 constructs prepared in 5% BSA/TBS plus 0.0125% T20 for 1.5 hours at 25° C. Bound rhCD74 was detected with a monoclonal antibody that specifically recognizes human CD74 in a region away from the putative MIF/D-DT binding site. Absorbance at 450 nm was determined and data were analyzed with Prism, the parameters were calculated with the competition equation included in the software. For competition between DRα1-hMOG-35-55 and P2 peptide (see next section), mouse CD74 was immunoprecipitated from DR*1501 Tg mouse splenocytes and a competition experiment was set. 2.5 μl of P2 peptide were used with increasing concentrations of DRα1-hMOG-35-55 protein. Bound peptide was eluted from the immunoprecipitation with 2% SDS and analyzed in a 16.5% PAG Tris/Tricine. The gel was scanned for FITC and fluorescence was quantified by densitometry. P2 fluorescence vs. DRα1 competitor was plotted and data analyzed with Prism. The relative density values were fit to a One-binding site equation. […]

Binder	IC50 [1] [nM]	Kd [2] [nM]	IC50 [3] [nM]	Kd [4] [nM]	Kd (mouse CD74) [nM]
DRhQ (other, Made in E. coli; also called DRα1-hMOG-35-55 with glutamine substitution; L50Q) MEVGWYRPPFSRVVHLYRNGKGGGGSLVPRGSGGGGIKEEHVIIQAEFYQNPDQSGEFMFDFDGDEIFHVDMAKKETVWRLEEFGRFASFEAQGALANIAVDKANLEIMTKRSNYTPITN	280	89	298	91.1	
DRmQ (other, also called DRα1-mMOG-35-55 with glutamine substitution) MEVGWYRSPFSRVVHLYRNGKGGGGSLVPRGSGGGGIKEEHVIIQAEFYQNPDQSGEFMFDFDGDEIFHVDMAKKETVWRLEEFGRFASFEAQGALANIAVDKANLEIMTKRSNYTPITN			828		
DRα1-hMOG-35-55 (other, also called DRα1-human(h)MOG-35-55; DRα1 with human MOG-35-55 peptide) MEVGWYRPPFSRVVHLYRNGKGGGGSLVPRGSGGGGIKEEHVIIQAEFYLNPDQSGEFMFDFDGDEIFHVDMAKKETVWRLEEFGRFASFEAQGALANIAVDKANLEIMTKRSNYTPITN	1600	650	1640	702	750
DRα1-mMOG-35-55 (other, also called DRα1 with mouse MOG-35-55 peptide) MEVGWYRSPFSRVVHLYRNGKGGGGSLVPRGSGGGGIKEEHVIIQAEFYLNPDQSGEFMFDFDGDEIFHVDMAKKETVWRLEEFGRFASFEAQGALANIAVDKANLEIMTKRSNYTPITN			937		
